Data as given in patent publication US20230002480A1.

What was measured:
Assay in all cases: cell-based or functional assay
[1] = biological target: HIV-1 Env of pseudovirus 1006_11_C3_1601 (clade B (T/F)) (HIV-1)
[2] = biological target: HIV-1 Env of pseudovirus 249M B10 (clade C (T/F)) (HIV-1)
[3] = biological target: HIV-1 Env of pseudovirus 62357_14_D3_4589 (clade B (T/F)) (HIV-1)
[4] = biological target: HIV-1 Env of pseudovirus CNE20 (clade BC) (HIV-1)
[5] = biological target: HIV-1 Env of pseudovirus Ce1172_H1 (clade C (T/F)) (HIV-1)
[6] = biological target: HIV-1 Env of pseudovirus Ce1176_A3 (clade C (T/F)) (HIV-1)
[7] = biological target: HIV-1 Env of pseudovirus Du422.1 (clade C) (HIV-1)
[8] = biological target: HIV-1 Env of pseudovirus HIV-001428-2.42 (clade C) (HIV-1)
[9] = biological target: HIV-1 Env of pseudovirus HIV-16845-2.22 (clade C) (HIV-1)
[10] = biological target: HIV-1 Env of pseudovirus MS208.A1 (clade A) (HIV-1)
[11] = biological target: HIV-1 Env of pseudovirus Q259.d2.17 (clade A) (HIV-1)
[12] = biological target: HIV-1 Env of pseudovirus REJO4541.67 (clade B) (HIV-1)
[13] = biological target: HIV-1 Env of pseudovirus THRO4156.18 (clade B) (HIV-1)
[14] = biological target: HIV-1 Env of pseudovirus TRJO4551.58 (clade B) (HIV-1)
[15] = biological target: HIV-1 Env of pseudovirus ZM135M.PL10a (clade C) (HIV-1)
[16] = biological target: HIV-1 Env of pseudovirus ZM53M.PB12 (clade C) (HIV-1)
[17] = biological target: HIV-1 Env of pseudovirus 235-47 (clade CRF02_AG) (HIV-1)
[18] = biological target: HIV-1 Env of pseudovirus BJOX015000.11.5 (clade CRF01_AE (T/F)) (HIV-1)
[19] = biological target: HIV-1 Env pseudovirus 0260.v5.c36 (HIV-1)
[20] = biological target: HIV-1 Env pseudovirus 0815.v3.c3 (HIV-1)
[21] = biological target: HIV-1 Env pseudovirus 191084 B7-19 (HIV-1)
[22] = biological target: HIV-1 Env pseudovirus 191955_A11 (HIV-1)
[23] = biological target: HIV-1 Env pseudovirus 231965.c01 (HIV-1)
[24] = biological target: HIV-1 Env pseudovirus 235-47 (HIV-1)
[25] = biological target: HIV-1 Env pseudovirus 3415.v1.c1 (HIV-1)
[26] = biological target: HIV-1 Env pseudovirus 620345.c01 (HIV-1)
[27] = biological target: HIV-1 Env pseudovirus 6811.v7.c18 (HIV-1)
[28] = biological target: HIV-1 Env pseudovirus 6952.v1.c20 (HIV-1)
[29] = biological target: HIV-1 Env pseudovirus BJOX025000.01.1 (HIV-1)
[30] = biological target: HIV-1 Env pseudovirus R1166.c01 (HIV-1)
[31] = biological target: HIV-1 Env pseudovirus X1254_c3 (HIV-1)
[32] = biological target: HIV-1 Env pseudovirus X1632_S2_B10 (HIV-1)

Substance: N49P11 (antibody)
- IC50 [1]: 0.125 µg/mL
- IC80 [1]: 0.487 µg/mL
- MPI [1]: 100
- IC50 [2]: 3.54 µg/mL
- IC80 [2]: 12.9 µg/mL
- MPI [2]: 100
- IC50 [3]: 0.599 µg/mL
- IC80 [3]: 3.56 µg/mL
- MPI [3]: 100
- IC50 [4]: 5.19 µg/mL
- IC80 [4]: 22.6 µg/mL
- MPI [4]: 100
- IC50 [5]: 3.55 µg/mL
- IC80 [5]: 19.2 µg/mL
- MPI [5]: 100
- IC50 [6]: 0.946 µg/mL
- IC80 [6]: 6.05 µg/mL
- MPI [6]: 100
- IC50 [7]: 8.81 µg/mL
- IC80 [7]: 21.2 µg/mL
- MPI [7]: 100
- IC50 [8]: 0.221 µg/mL
- IC80 [8]: 1.64 µg/mL
- MPI [8]: 100
- IC50 [9]: 1.72 µg/mL
- IC80 [9]: 8.15 µg/mL
- MPI [9]: 100
- IC50 [10]: 0.259 µg/mL
- IC80 [10]: 1.94 µg/mL
- MPI [10]: 100
- IC50 [11]: 8.42 µg/mL
- IC80 [11]: 21.4 µg/mL
- MPI [11]: 100
- IC50 [12]: 10.8 µg/mL
- IC80 [12]: 27.1 µg/mL
- MPI [12]: 100
- IC50 [13]: 1.84 µg/mL
- IC80 [13]: 10.4 µg/mL
- MPI [13]: 100
- IC50 [14]: 0.183 µg/mL
- IC80 [14]: 0.656 µg/mL
- MPI [14]: 100
- IC50 [15]: 3.97 µg/mL
- IC80 [15]: 16.6 µg/mL
- MPI [15]: 100
- IC50 [16]: 1.05 µg/mL
- IC80 [16]: 6.53 µg/mL
- MPI [16]: 100

Substance: 10E8 (antibody)
- IC50, titer in TZM.bl cells [17]: 0.384 µg/mL
- IC80, titer in TZM.bl cells [17]: 2.07 µg/mL
- IC50, titer in TZM.bl cells [18]: 0.051 µg/mL
- IC80, titer in TZM.bl cells [18]: 1.91 µg/mL

Substance: N49P7.2 (antibody)
- IC50 [1]: 0.085 µg/mL
- IC80 [1]: 0.237 µg/mL
- MPI [1]: 100
- IC50 [2]: 0.095 µg/mL
- IC80 [2]: 0.349 µg/mL
- MPI [2]: 100
- IC50 [3]: 0.03 µg/mL
- IC80 [3]: 0.121 µg/mL
- MPI [3]: 100
- IC50 [4]: 0.119 µg/mL
- IC80 [4]: 0.574 µg/mL
- MPI [4]: 99
- IC50 [5]: > 50 µg/mL
- IC80 [5]: > 50 µg/mL
- MPI [5]: 6
- IC50 [6]: 0.332 µg/mL
- IC80 [6]: 1.08 µg/mL
- MPI [6]: 100
- IC50 [7]: > 50 µg/mL
- IC80 [7]: > 50 µg/mL
- MPI [7]: 22
- IC50 [8]: 0.01 µg/mL
- IC80 [8]: 0.036 µg/mL
- MPI [8]: 100
- IC50 [9]: 3.91 µg/mL
- IC80 [9]: 18.2 µg/mL
- MPI [9]: 98
- IC50 [10]: 0.186 µg/mL
- IC80 [10]: 0.966 µg/mL
- MPI [10]: 100
- IC50 [11]: 38.5 µg/mL
- IC80 [11]: > 50 µg/mL
- MPI [11]: 54
- IC50 [12]: 0.018 µg/mL
- IC80 [12]: 0.08 µg/mL
- MPI [12]: 100
- IC50 [13]: 6.29 µg/mL
- IC80 [13]: 33.3 µg/mL
- MPI [13]: 94
- IC50 [14]: 0.21 µg/mL
- IC80 [14]: 0.673 µg/mL
- MPI [14]: 100
- IC50 [15]: 0.596 µg/mL
- IC80 [15]: 2.8 µg/mL
- MPI [15]: 99
- IC50 [16]: 0.477 µg/mL
- IC80 [16]: 1.73 µg/mL
- MPI [16]: 100

Substance: N49P19 (antibody)
- IC50 [19]: 1.25 µg/mL
- IC80 [19]: 8.52 µg/mL
- MPI [19]: 99
- IC50 [20]: 0.176 µg/mL
- IC80 [20]: 0.743 µg/mL
- MPI [20]: 100
- IC50 [21]: 0.357 µg/mL
- IC80 [21]: 1.34 µg/mL
- MPI [21]: 100
- IC50 [22]: > 50 µg/mL
- IC80 [22]: > 50 µg/mL
- MPI [22]: 16
- IC50 [23]: > 50 µg/mL
- IC80 [23]: > 50 µg/mL
- MPI [23]: 22
- IC50 [24]: 0.44 µg/mL
- IC80 [24]: 3.23 µg/mL
- MPI [24]: 89
- IC50 [25]: 0.462 µg/mL
- IC80 [25]: 2.04 µg/mL
- MPI [25]: 100
- IC50 [26]: > 50 µg/mL
- IC80 [26]: > 50 µg/mL
- MPI [26]: 0
- IC50 [27]: 1.3 µg/mL
- IC80 [27]: 4.71 µg/mL
- MPI [27]: 97
- IC50 [28]: > 50 µg/mL
- IC80 [28]: > 50 µg/mL
- MPI [28]: 0
- IC50 [29]: > 50 µg/mL
- IC80 [29]: > 50 µg/mL
- MPI [29]: 24
- IC50 [30]: 0.629 µg/mL
- IC80 [30]: 2.69 µg/mL
- MPI [30]: 100
- IC50 [31]: > 50 µg/mL
- IC80 [31]: > 50 µg/mL
- MPI [31]: 48
- IC50 [32]: > 50 µg/mL
- IC80 [32]: > 50 µg/mL
- MPI [32]: 14

Substance: N49P9.1 (antibody)
- IC50 [19]: 0.519 µg/mL
- IC80 [19]: 0.151 µg/mL
- MPI [19]: 100
- IC50 [20]: 0.012 µg/mL
- IC80 [20]: 0.041 µg/mL
- MPI [20]: 100
- IC50 [21]: 0.097 µg/mL
- IC80 [21]: 0.259 µg/mL
- MPI [21]: 100
- IC50 [22]: > 50 µg/mL
- IC80 [22]: > 50 µg/mL
- MPI [22]: 26
- IC50 [23]: 0.474 µg/mL
- IC80 [23]: 2.24 µg/mL
- MPI [23]: 100
- IC50 [24]: 0.045 µg/mL
- IC80 [24]: 0.352 µg/mL
- MPI [24]: 98
- IC50 [25]: 0.21 µg/mL
- IC80 [25]: 1.37 µg/mL
- MPI [25]: 100
- IC50 [26]: > 50 µg/mL
- IC80 [26]: > 50 µg/mL
- MPI [26]: 7
- IC50 [27]: 0.398 µg/mL
- IC80 [27]: 1.76 µg/mL
- MPI [27]: 97
- IC50 [28]: 0.119 µg/mL
- IC80 [28]: 0.389 µg/mL
- MPI [28]: 100
- IC50 [29]: 0.131 µg/mL
- IC80 [29]: 0.67 µg/mL
- MPI [29]: 100
- IC50 [30]: 0.073 µg/mL
- IC80 [30]: 0.232 µg/mL
- MPI [30]: 100
- IC50 [31]: 0.101 µg/mL
- IC80 [31]: 0.278 µg/mL
- MPI [31]: 100
- IC50 [32]: > 50 µg/mL
- IC80 [32]: > 50 µg/mL
- MPI [32]: 10
